Experimental data from patent publication US20170226204A1 (PERONGEN BIOTHERAPEUTICS SUZHOU, published 2017).

B1: anti-human CD7 nanobody clone 4 (VHH)
VHH: DVQLQESGGGSVQAGGSLRLSCAASGYTTSRLCMAWFRQFPGKEREGVANVRLGGYKPAYADSVKGRFTLSEDSAKNTVYLEMNSLQPEDTAMYYCAADPGGGGSCPVALVRGDFDYWGQGTQVTVSI
B2: anti-human CD7 nanobody clone 6 (VHH)
VHH: DVQLQESGGGSVQAGGSLRLSCAASGYTYSTYCMGWFRQAPGKEREGVATIDSDGSTSYADSVKGRFTISRDNAKNTLNLQMSSLKPEDTAMYYCAARFGPMGCVDLSTLSFGHWGQGTQVTVSI
B3: anti-human CD7 nanobody clone 1 (VHH)
VHH: DVQLQESGGGSVQAGGSLRLSCPASGYTFSHYCMGWNRQAPGKEREEVATIDTDDTPTYADSVMGRFTISRDNANNALYLQMNDLKPEDTSMYYCAIWMKLRGSCHDRRLEVRGQGTQVTVSI
B4: anti-human CD7 nanobody clone 3 (VHH)
VHH: DVQLQESGGGSVQAGGSLRLSCPASGYTFSHYCMGWLRQAPGKEREEVATIDTDSTPTYADSVMGRFTISRDNANNALYLQMNDLKPEDTSMYYCATWMGLRGSCHDRRLEVRGQGTQVTVSI

target: T1, human CD7 molecule (human, UniProt P09564 26-240); experiment: phage whole-cell ELISA, 293T-CD7+ against 293T-CD7- cells; positive when OD is 2.5 times that of the control well
T1 construct: whole, on cells; also called CD7 protein
T1 sequence (looked up): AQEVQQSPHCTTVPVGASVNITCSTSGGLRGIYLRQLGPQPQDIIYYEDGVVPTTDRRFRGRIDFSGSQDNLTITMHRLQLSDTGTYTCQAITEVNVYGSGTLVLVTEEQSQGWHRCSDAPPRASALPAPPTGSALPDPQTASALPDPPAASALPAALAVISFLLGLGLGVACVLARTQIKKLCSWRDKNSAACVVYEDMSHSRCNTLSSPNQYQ

Binding result, binds:
B1, B2, B3, B4
